The labels stand for the following.
B1: scFv; the commonest letter at each place (parent)
chain 1: EVKLDETGGGLVQPGRPMKLSCVASGFTFSDYWMNWVRQSPEKGLEWVAQIRNKPYNYETYYSDSVKGRFTISRDDSKSSVYLQMNNLRVEDMGIYYCTGSYYGMDYWGQGTSVTVS
chain 2: DVVMTQTPLSLPVSLGDQASISCRSSQSLVHSNGNTYLRWYLQKPGQSPKVLIYKVSNRFSGVPDRFSGSGSGTDFTLKISRVEAEDLGVYFCSQSTHVPWTFGGGTKLEIK

The data set “fluorescein” covers variants of B1. The data set is described as follows: Kd (Tite-Seq). The following applies: with fluorescein; format: scFv 4-4-20, heavy + light.
Data set [1] covers variants of B1. The data set is described as follows: yeast surface expression (ratio to wild type); higher = more expressed. The following applies: format: scFv 4-4-20, heavy + light.

The record followed here is the FLAb antibody collection (doi:10.7554/elife.23156).

Regarding chain 1 S101D Y107S, in the data set with fluorescein, the Kd (in general, the free concentration of one partner at which half of the binding sites on the other are occupied at equilibrium, for simple one-to-one binding) is no less than 10 µM. In data set [1], the yeast surface expression came to 0.672.
Consider chain 1 G100E G109Y, for which the Kd in the data set with fluorescein was no less than 10 µM. Further, the yeast surface expression in data set [1] was 0.199.
For chain 1 S101N G109N, the Kd in the data set with fluorescein is no less than 10 µM. For the same variant, the yeast surface expression in data set [1] worked out at 0.267.
Regarding chain 1 N35F W36Q, in the data set with fluorescein, the Kd was no less than 10 µM. The yeast surface expression in data set [1] was determined as 0.38.
On the same counts, the results for chain 1 Y102T M105K are 0.00708 µM and 0.849.
In the case of chain 1 Y107T W108A, in the data set with fluorescein, the Kd was found to be 0.00215 µM. The yeast surface expression in data set [1] came to 0.476.
On to chain 1 F29R Y32P N35E, for which the Kd with fluorescein was no less than 10 µM. Besides, the yeast surface expression in data set [1] was 0.819.
Turning to chain 1 D31N W36I, the Kd with fluorescein was determined as 0.0287 µM. Further, the yeast surface expression in data set [1] is 0.679.
On the same counts, the results for chain 1 D31V Y32L are 0.972 µM and 0.584.
In the case of chain 1 M34I V37S, the Kd in the data set with fluorescein came out at 0.0353 µM. Besides, in data set [1], the yeast surface expression was 0.776.
On the same counts, the results for chain 1 M34I V37M are 0.00184 µM and 0.847.
Consider chain 1 G104T Y107P, for which the Kd with fluorescein is no less than 10 µM. The yeast surface expression in data set [1] was 0.313.
On the same counts, the results for chain 1 T28M S30A W36F are 0.00158 µM and 0.845.
Taken in the same sequence, the figures for chain 1 M34R V37W were 0.0353 µM and 3.88.
On the same counts, the results for chain 1 Y32N M34V are no less than 10 µM and 0.683.
Take chain 1 S101R Y107I: the Kd with fluorescein was no less than 10 µM. Besides, the yeast surface expression in data set [1] stood at 0.812.
Turning to chain 1 W33E N35C, the equilibrium dissociation constant (Kd) in the data set with fluorescein was no less than 10 µM. In addition, in data set [1], the yeast surface expression stood at 0.797.
Taken in the same sequence, the figures for chain 1 G104K Y107P G109N were no less than 10 µM and 0.307.
In the case of chain 1 S101D W108A, in the data set with fluorescein, the Kd was no less than 10 µM. In addition, the yeast surface expression in data set [1] amounted to 0.443.
As for chain 1 Y32E W33K, in the data set with fluorescein, the Kd was no less than 10 µM. The yeast surface expression in data set [1] is 0.742.
Turning to chain 1 S30Q Y32V, the Kd with fluorescein was no less than 10 µM. In addition, the yeast surface expression in data set [1] was determined as 0.923.
Taken in the same sequence, the figures for chain 1 W108Q were 0.0233 µM and 0.506.
Take chain 1 W108C: in the data set with fluorescein, the Kd turned out to be 0.000646 µM. Besides, the yeast surface expression in data set [1] was 0.717.
On the same counts, the results for chain 1 G100V S101N are no less than 10 µM and 0.787.
For the variant chain 1 F29I V37D, in the data set with fluorescein, the Kd is no less than 10 µM. Also, the yeast surface expression in data set [1] was 1.12.
Consider chain 1 G104W G109E, for which the Kd with fluorescein is no less than 10 µM. Moreover, the yeast surface expression in data set [1] turned out to be 0.167.
On the same counts, the results for chain 1 T28W F29M are 0.0139 µM and 0.897.
On to chain 1 T28W F29R, for which, in the data set with fluorescein, the Kd was no less than 10 µM. The yeast surface expression in data set [1] turned out to be 0.615.
On the same counts, the results for chain 1 W33Q W36K are no less than 10 µM and 0.466.
Taken in the same sequence, the figures for chain 1 Y102M Y103F D106Y were no less than 10 µM and 0.388.
chain 1 T28V N35H: in the data set with fluorescein, the Kd is no less than 10 µM. In addition, in data set [1], the yeast surface expression worked out at 0.671.
On the same counts, the results for chain 1 F29D W33C M34D are no less than 10 µM and 0.403.
Taken in the same sequence, the figures for chain 1 Y103K G104R W108V were no less than 10 µM and 0.32.
On the same counts, the results for chain 1 G104A D106T are no less than 10 µM and 0.78.
As for chain 1 T28N Y32Q, in the data set with fluorescein, the Kd is no less than 10 µM. In data set [1], the yeast surface expression is 1.04.
On the same counts, the results for chain 1 N35F are no less than 10 µM and 0.708.
As to chain 1 N35E, the Kd in the data set with fluorescein was no less than 10 µM. Further, in data set [1], the yeast surface expression was determined as 0.802.
On the same counts, the results for chain 1 T28M M34N are 0.403 µM and 0.566.
On to chain 1 V37P, for which the Kd with fluorescein is no less than 10 µM. Also, the yeast surface expression in data set [1] is 0.676.
As for chain 1 V37Y, the Kd in the data set with fluorescein came out at 0.129 µM. Besides, the yeast surface expression in data set [1] was found to be 1.04.
Taken in the same sequence, the figures for chain 1 V37G were 0.071 µM and 0.58.
In the case of chain 1 N35H W36S, the Kd with fluorescein was no less than 10 µM. In addition, the yeast surface expression in data set [1] came to 0.692.
Turning to chain 1 Y102L D106W, in the data set with fluorescein, the equilibrium dissociation constant (Kd) was no less than 10 µM. Moreover, the yeast surface expression in data set [1] amounted to 0.238.
Taken in the same sequence, the figures for chain 1 M34I W36K were no less than 10 µM and 0.24.
For chain 1 W108A G109C, the Kd in the data set with fluorescein is no less than 10 µM. Moreover, the yeast surface expression in data set [1] turned out to be 0.197.
Taken in the same sequence, the figures for chain 1 D31M Y32N were no less than 10 µM and 0.536.
Regarding chain 1 Y102H G104F W108Y, the Kd in the data set with fluorescein was no less than 10 µM. In data set [1], the yeast surface expression was 0.283.
chain 1 Y103S D106H: the Kd with fluorescein was no less than 10 µM. Further, the yeast surface expression in data set [1] stood at 0.542.
Consider chain 1 S30K W33L, for which the dissociation constant (Kd) with fluorescein was no less than 10 µM. Also, the yeast surface expression in data set [1] was 0.749.
For chain 1 D31E W36Q, in the data set with fluorescein, the Kd was no less than 10 µM. The yeast surface expression in data set [1] was 0.326.
As for chain 1 T28Y D31V, the Kd in the data set with fluorescein was no less than 10 µM. In addition, the yeast surface expression in data set [1] was 0.509.
On the same counts, the results for chain 1 M34G N35H are no less than 10 µM and 0.394.
Turning to chain 1 N35V W36M, the Kd with fluorescein was no less than 10 µM. For the same variant, the yeast surface expression in data set [1] amounted to 0.488.
On the same counts, the results for chain 1 D31M are 0.00194 µM and 0.58.
On the same counts, the results for chain 1 T28W D31R are 0.0171 µM and 0.51.
On to chain 1 M105D W108S, for which, in the data set with fluorescein, the Kd was no less than 10 µM. Further, the yeast surface expression in data set [1] worked out at 0.458.
In the case of chain 1 G109T, the Kd with fluorescein is no less than 10 µM. In addition, in data set [1], the yeast surface expression is 0.551.
On the same counts, the results for chain 1 G109E are no less than 10 µM and 0.504.
